For the assay, the target named is T1, Mycobacterium tuberculosis cAMP receptor protein (Rv3676) (Mycobacterium tuberculosis), P9WMH3.
T1 chain: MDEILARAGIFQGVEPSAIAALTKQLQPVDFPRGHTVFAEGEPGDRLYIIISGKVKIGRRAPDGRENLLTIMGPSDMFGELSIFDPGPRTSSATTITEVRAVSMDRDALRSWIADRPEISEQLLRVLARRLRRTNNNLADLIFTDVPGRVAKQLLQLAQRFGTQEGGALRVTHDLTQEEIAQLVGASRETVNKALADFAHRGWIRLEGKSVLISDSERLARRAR
Briefly: cross-linking. The conditions noted are these: remark: other sources report otherwise.

B1: Mycobacterium tuberculosis cAMP receptor protein (Rv3676), P9WMH3 1-224 (natural protein)
chain: MDEILARAGIFQGVEPSAIAALTKQLQPVDFPRGHTVFAEGEPGDRLYIIISGKVKIGRRAPDGRENLLTIMGPSDMFGELSIFDPGPRTSSATTITEVRAVSMDRDALRSWIADRPEISEQLLRVLARRLRRTNNNLADLIFTDVPGRVAKQLLQLAQRFGTQEGGALRVTHDLTQEEIAQLVGASRETVNKALADFAHRGWIRLEGKSVLISDSERLARRAR
B1: the stoichiometry N (commonly a count of units in the complex or per binding partner) stood at 2.

These data come from PMC2844151.
